According to publication doi:10.1101/2021.03.11.435015:

Biological target: Myc-PUM1-R1147W (human) (UniProt Q14671)
Assay: co-IP

Substance: GST-CNOT1 (from UniProt A5YKK6 1-2376) (natural protein)
- percent by which the interaction is diminished against Myc-PUM1-WT: 35%
